Measurements taken from PMC9666304, “Quinone binding site in a type VI sulfide:quinone oxidoreductase” (Applied Microbiology and Biotechnology, 2022).

Experiments:
TrSqrF; SqrF WT = biological target: T1, TrSqrF; SqrF WT (Thiocapsa roseopersicina, UniProt A0A1Z2RRG1); test: UV-visible absorption of purified protein; in-gel FAD fluorescence; format: binding; settings: co-purified cofactor
T1 sequence (A0A1Z2RRG1 1-375): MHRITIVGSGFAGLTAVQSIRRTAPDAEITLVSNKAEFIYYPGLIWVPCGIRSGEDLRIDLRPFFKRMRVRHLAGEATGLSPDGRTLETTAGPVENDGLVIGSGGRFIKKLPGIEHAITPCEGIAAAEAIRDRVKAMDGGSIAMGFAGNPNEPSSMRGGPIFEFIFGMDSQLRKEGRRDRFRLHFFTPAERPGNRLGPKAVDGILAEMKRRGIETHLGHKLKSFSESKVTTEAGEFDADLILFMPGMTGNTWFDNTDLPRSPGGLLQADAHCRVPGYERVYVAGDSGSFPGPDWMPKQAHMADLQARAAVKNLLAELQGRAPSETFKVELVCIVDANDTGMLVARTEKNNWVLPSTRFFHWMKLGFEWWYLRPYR

purified protein [1] = substrate: CC1=C(C)C(=O)C(C)=C(C)C1=O; test: purified protein; format: biochemical, Thiocapsa roseopersicina; settings: 200 µM sulfide, 50 mM Tris-HCl pH 8.0, 25 °C, anaerobic
purified protein [2] = substrate: CCCCCCCCCCC1=C(C)C(=O)C(OC)=C(OC)C1=O; test: purified protein; format: biochemical, Thiocapsa roseopersicina; settings: 200 µM sulfide, 50 mM Tris-HCl pH 8.0, 25 °C, anaerobic

Cc1cc2nc3c(=O)[nH]c(=O)nc-3n(C[C@H](O)[C@H](O)[C@H](O)COP(=O)(O)OP(=O)(O)OC[C@H]3O[C@@H](n4cnc5c(N)ncnc54)[C@H](O)[C@@H]3O)c2cc1C [FAD, flavin adenine dinucleotide]
UV-visible absorption of purified protein; in-gel FAD fluorescence (TrSqrF; SqrF WT): Absorption maxima at these wavelengths indicated that all TrSqrF variants contained the FAD cofactor

B1: SqrF CTD (Thiocapsa roseopersicina) (protein)
chain: MHRITIVGSGFAGLTAVQSIRRTAPDAEITLVSNKAEFIYYPGLIWVPCGIRSGEDLRIDLRPFFKRMRVRHLAGEATGLSPDGRTLETTAGPVENDGLVIGSGGRFIKKLPGIEHAITPCEGIAAAEAIRDRVKAMDGGSIAMGFAGNPNEPSSMRGGPIFEFIFGMDSQLRKEGRRDRFRLHFFTPAERPGNRLGPKAVDGILAEMKRRGIETHLGHKLKSFSESKVTTEAGEFDADLILFMPGMTGNTWFDNTDLPRSPGGLLQADAHCRVPGYERVYVAGDSGSFPGPDWMPKQAHMADLQARAAVKNLLAELQGRAPSETFKVELVCIVDANDTGMLVARTEKNNWVLPST
notes: C-terminal alpha-helix deletion, stop codons after Thr356; N-terminal StrepII tag, expressed in T. roseopersicina FOQRON
Km (purified protein [1]): 70.71 ± 44.78 µM | kcat (purified protein [1]): 0.96 ± 0.24 s⁻¹ | kcat/Km (purified protein [1]): 14000 M⁻¹ s⁻¹ | Km (purified protein [2]): 18.99 ± 0.67 µM | kcat (purified protein [2]): 4.9 ± 0.8 s⁻¹ | kcat/Km (purified protein [2]): 268000 M⁻¹ s⁻¹

B2: TrSqrF; SqrF WT (Thiocapsa roseopersicina) (protein)
chain: MHRITIVGSGFAGLTAVQSIRRTAPDAEITLVSNKAEFIYYPGLIWVPCGIRSGEDLRIDLRPFFKRMRVRHLAGEATGLSPDGRTLETTAGPVENDGLVIGSGGRFIKKLPGIEHAITPCEGIAAAEAIRDRVKAMDGGSIAMGFAGNPNEPSSMRGGPIFEFIFGMDSQLRKEGRRDRFRLHFFTPAERPGNRLGPKAVDGILAEMKRRGIETHLGHKLKSFSESKVTTEAGEFDADLILFMPGMTGNTWFDNTDLPRSPGGLLQADAHCRVPGYERVYVAGDSGSFPGPDWMPKQAHMADLQARAAVKNLLAELQGRAPSETFKVELVCIVDANDTGMLVARTEKNNWVLPSTRFFHWMKLGFEWWYLRPYR
Km (purified protein [1]): 27.39 ± 2.47 µM | kcat (purified protein [1]): 1.25 ± 0.04 s⁻¹ | kcat/Km (purified protein [1]): 46000 M⁻¹ s⁻¹ | Km (purified protein [2]): 24.47 ± 6.42 µM | kcat (purified protein [2]): 8.37 ± 0.33 s⁻¹ | kcat/Km (purified protein [2]): 342000 M⁻¹ s⁻¹

B3: TrSqrF; SqrF WT (Thiocapsa roseopersicina; V331A) (protein)
chain: MHRITIVGSGFAGLTAVQSIRRTAPDAEITLVSNKAEFIYYPGLIWVPCGIRSGEDLRIDLRPFFKRMRVRHLAGEATGLSPDGRTLETTAGPVENDGLVIGSGGRFIKKLPGIEHAITPCEGIAAAEAIRDRVKAMDGGSIAMGFAGNPNEPSSMRGGPIFEFIFGMDSQLRKEGRRDRFRLHFFTPAERPGNRLGPKAVDGILAEMKRRGIETHLGHKLKSFSESKVTTEAGEFDADLILFMPGMTGNTWFDNTDLPRSPGGLLQADAHCRVPGYERVYVAGDSGSFPGPDWMPKQAHMADLQARAAVKNLLAELQGRAPSETFKVELACIVDANDTGMLVARTEKNNWVLPSTRFFHWMKLGFEWWYLRPYR
Km (purified protein [2]): 18.99 ± 6.10 µM | kcat (purified protein [2]): 2.47 ± 0.33 s⁻¹ | kcat/Km (purified protein [2]): 130000 M⁻¹ s⁻¹

B4: TrSqrF; SqrF WT (Thiocapsa roseopersicina; V331F) (protein)
chain: MHRITIVGSGFAGLTAVQSIRRTAPDAEITLVSNKAEFIYYPGLIWVPCGIRSGEDLRIDLRPFFKRMRVRHLAGEATGLSPDGRTLETTAGPVENDGLVIGSGGRFIKKLPGIEHAITPCEGIAAAEAIRDRVKAMDGGSIAMGFAGNPNEPSSMRGGPIFEFIFGMDSQLRKEGRRDRFRLHFFTPAERPGNRLGPKAVDGILAEMKRRGIETHLGHKLKSFSESKVTTEAGEFDADLILFMPGMTGNTWFDNTDLPRSPGGLLQADAHCRVPGYERVYVAGDSGSFPGPDWMPKQAHMADLQARAAVKNLLAELQGRAPSETFKVELFCIVDANDTGMLVARTEKNNWVLPSTRFFHWMKLGFEWWYLRPYR
Km (purified protein [1]): 40.23 ± 7.36 µM | kcat (purified protein [1]): 0.72 ± 0.02 s⁻¹ | kcat/Km (purified protein [1]): 18000 M⁻¹ s⁻¹ | Km (purified protein [2]): 12.33 ± 0.86 µM | kcat (purified protein [2]): 3.64 ± 1.06 s⁻¹ | kcat/Km (purified protein [2]): 295000 M⁻¹ s⁻¹

B5: TrSqrF; SqrF WT (Thiocapsa roseopersicina; I333F) (protein)
chain: MHRITIVGSGFAGLTAVQSIRRTAPDAEITLVSNKAEFIYYPGLIWVPCGIRSGEDLRIDLRPFFKRMRVRHLAGEATGLSPDGRTLETTAGPVENDGLVIGSGGRFIKKLPGIEHAITPCEGIAAAEAIRDRVKAMDGGSIAMGFAGNPNEPSSMRGGPIFEFIFGMDSQLRKEGRRDRFRLHFFTPAERPGNRLGPKAVDGILAEMKRRGIETHLGHKLKSFSESKVTTEAGEFDADLILFMPGMTGNTWFDNTDLPRSPGGLLQADAHCRVPGYERVYVAGDSGSFPGPDWMPKQAHMADLQARAAVKNLLAELQGRAPSETFKVELVCFVDANDTGMLVARTEKNNWVLPSTRFFHWMKLGFEWWYLRPYR
Km (purified protein [1]): 102.7 ± 69.9 µM | kcat (purified protein [1]): 0.72 ± 0.21 s⁻¹ | kcat/Km (purified protein [1]): 7000 M⁻¹ s⁻¹ | Km (purified protein [2]): 13.98 ± 7.20 µM | kcat (purified protein [2]): 1.2 ± 0.48 s⁻¹ | kcat/Km (purified protein [2]): 86000 M⁻¹ s⁻¹

B6: TrSqrF; SqrF WT (Thiocapsa roseopersicina; F366A) (protein)
chain: MHRITIVGSGFAGLTAVQSIRRTAPDAEITLVSNKAEFIYYPGLIWVPCGIRSGEDLRIDLRPFFKRMRVRHLAGEATGLSPDGRTLETTAGPVENDGLVIGSGGRFIKKLPGIEHAITPCEGIAAAEAIRDRVKAMDGGSIAMGFAGNPNEPSSMRGGPIFEFIFGMDSQLRKEGRRDRFRLHFFTPAERPGNRLGPKAVDGILAEMKRRGIETHLGHKLKSFSESKVTTEAGEFDADLILFMPGMTGNTWFDNTDLPRSPGGLLQADAHCRVPGYERVYVAGDSGSFPGPDWMPKQAHMADLQARAAVKNLLAELQGRAPSETFKVELVCIVDANDTGMLVARTEKNNWVLPSTRFFHWMKLGAEWWYLRPYR
Km (purified protein [1]): 46.19 ± 2.53 µM | kcat (purified protein [1]): 0.26 ± 0.01 s⁻¹ | kcat/Km (purified protein [1]): 6000 M⁻¹ s⁻¹ | Km (purified protein [2]): 9.38 ± 1.97 µM | kcat (purified protein [2]): 1.97 ± 0.28 s⁻¹ | kcat/Km (purified protein [2]): 210000 M⁻¹ s⁻¹

B7: TrSqrF; SqrF WT (Thiocapsa roseopersicina; F366Y) (protein)
chain: MHRITIVGSGFAGLTAVQSIRRTAPDAEITLVSNKAEFIYYPGLIWVPCGIRSGEDLRIDLRPFFKRMRVRHLAGEATGLSPDGRTLETTAGPVENDGLVIGSGGRFIKKLPGIEHAITPCEGIAAAEAIRDRVKAMDGGSIAMGFAGNPNEPSSMRGGPIFEFIFGMDSQLRKEGRRDRFRLHFFTPAERPGNRLGPKAVDGILAEMKRRGIETHLGHKLKSFSESKVTTEAGEFDADLILFMPGMTGNTWFDNTDLPRSPGGLLQADAHCRVPGYERVYVAGDSGSFPGPDWMPKQAHMADLQARAAVKNLLAELQGRAPSETFKVELVCIVDANDTGMLVARTEKNNWVLPSTRFFHWMKLGYEWWYLRPYR
Km (purified protein [1]): 79.30 ± 14.68 µM | kcat (purified protein [1]): 0.57 ± 0.08 s⁻¹ | kcat/Km (purified protein [1]): 7000 M⁻¹ s⁻¹ | Km (purified protein [2]): 10.03 ± 1.39 µM | kcat (purified protein [2]): 3.17 ± 0.82 s⁻¹ | kcat/Km (purified protein [2]): 316000 M⁻¹ s⁻¹
